Six substances from paper PMC8304084, “A Concerted Action of UBA5 C-Terminal Unstructured Regions Is Important for Transfer of Activated UFM1 to UFC1” (International Journal of Molecular Sciences, 2021) can be followed below.

“Also recorded” adds a separate entry of the source. Where no end group is shown, it is not given here.

In assay [1] the target is T1, UFC1 (Homo sapiens, UniProt Q9Y3C8).
T1 construct: Full length UFC1, residues 1–167; modified ubiquitin tag (Ub19) with TEV site (N, cleaved yes); made in house; host or cells: E. coli T7 Express
T1 sequence (Q9Y3C8 1-167): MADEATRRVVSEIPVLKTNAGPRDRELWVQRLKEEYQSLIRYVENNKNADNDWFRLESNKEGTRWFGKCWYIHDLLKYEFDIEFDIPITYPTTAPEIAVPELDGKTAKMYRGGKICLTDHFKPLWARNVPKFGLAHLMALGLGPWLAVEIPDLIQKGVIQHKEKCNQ
Nature of the assay: In vitro thioester formation (ufmylation) assay, UFC1~UFM1 conjugate. In kind it is biochemical. Particulars: for effect on UFC1~UFM1 conjugation (in words): 1 mM ATP, 22 °C, peptides added to UBA5 AD^1–330 where applicable; for UFC1~UFM1 conjugate fraction (in words): ATP reduced to 25 µM, compared to wild type peptide. The method, then:
First, we analyzed the effect of the UBA5 C-terminus on UFM1 transfer to UFC1 with an in vitro thioester formation assay (Figure 1B–E).
Ufmylation reaction assays were adopted from work of Xie. Briefly, 70 µM UFM1, 20 µM UFC1 and 20 µM of different UBA5 constructs were mixed in reaction buffer (50 mM HEPES pH = 7.5, 100 mM NaCl, 5 mM MgCl2). After starting the reaction with addition of 1 mM ATP, the reaction mix was incubated at 22 °C for the desired time. To quench the reaction and prepare electrophoretic samples, 1 µL of the reaction mix was added to 99 µL 1x non-reducing SDS loading buffer and frozen in liquid nitrogen. Sample content was visualized by sodium dodecyl sulfate polyacrylamide gel electrophoresis (SDS-PAGE). The transfer to polyvinylidene difluoride (PVDF) membrane was performed via a Trans-Blot® Turbo™ Transfer System (Bio-Rad, München, Germany). After transfer the membrane was blocked with TBST (Tris-buffered saline with Tween20 buffer, 20 mM Tris, 150 mM NaCl and 0.1% TWEEN 20) containing 5% w/v nonfat dry milk for 1 h, followed by α-UFC1 antibody incubation over night at 4 °C (ab189251 abcam, 1:10,000 in TBST containing 5% w/v nonfat dry milk). After washing with TBST the membrane was incubated with secondary antibody (anti-rabbit-HRP) for 1 h at RT and again washed with TBST. Detection was performed by addition of ECL solution. For quantification of UFC1 ufmylation coloc2 software implemented in ImageJ was used.

The target in assay [2] is T1, UFC1. Nature of the assay: ITC, UBA5 constructs vs UFC1. In kind it is binding. Particulars: for Kd / ΔG / −T*ΔS / ΔS / KA*10^−6 / ΔH: ITC, 25 °C; for Kd / ΔH: VP-ITC, peptide ~400 µM titrated into 20–25 µM UFC1, 25 mM HEPES pH 7.5, 100 mM NaCl, single ITC profile; for Kd / ΔS / ΔH: one-site model; for N: ITC stoichiometry; for N / ΔG / −T*ΔS / ΔS / KA*10^−6: peptide vs UFC1; for N / KA*10^−6 / ΔH: ± = fitting error; for ΔS: single profile; for KA*10^−6: value is KA × 10^−6. The text has this:
(§1) To understand how the UBA5 C-terminus participates in the ufmylation cascade, we performed isothermal titration calorimetry (ITC) experiments, in which we titrated UBA5 C-terminal peptides (see Table 1) to the UBA5 AD, UFC1, UFM1 and representative LC3/GABARAP proteins (Figure 2A, Supplementary Figure S2A–D and Table 2).
To investigate if conjugation of UFM1 to the UBA5 catalytic cysteine (C250) affects the UFC1:UBA5 interactions, we prepared full length UBA5 C250K mutant and stably conjugated UFM1 to it as reported before for a number of ubiquitin-specific E2 enzymes. We compared the UFC1 spectra after addition of a twofold molar excess of FL^1–404 and FL^1–404 C250K~UFM1 constructs (Supplementary Figure S5C).
(§2) All proteins and peptides were expressed in E.Coli T7 Express (New England Biolabs GmbH, Frankfurt, Germany) cells in LB or M9 (to obtain ^15N- and ^13C,^15N-labeled polypeptides) media according to the protocol described in [33, 36]. For protein purification, bacterial cell pellets were resuspended in lysis buffer (50 mM Tris-HCl pH = 7.5, 100 mM NaCl, 5% glycerol, 5 mM PIC (protease inhibitor cocktail)) and lysed via sonication (TT13 Sonotrode, 40% amplitude, for 6 × 1 min with a 0.5/0.5-s pulse). Lysates were centrifuged for 45 min at 17,000× g at 4 °C. Supernatants were loaded onto a His Trap Fast Flow 5 mL column (GE Healthcare, München, Germany) equilibrated in loading buffer (50 mM Tris-HCl pH = 8.0, 250 mM NaCl, 1% glycerol, 20 mM imidazole). The column was washed with loading buffer for 5–10 CV and protein was eluted with elution buffer (50 mM Tris-HCl pH = 8, 250 mM NaCl, 1% glycerol, 400 mM imidazole). Simultaneous TEV cleavage (1 mg TEV protease was added to 100 mg peptides/proteins) and buffer exchange to loading buffer via dialysis was performed over night at 4 °C. After reverse IMAC, proteins were concentrated with conical concentrators (Millipore Merck, Darmstadt, Germany) and loaded on a Superdex 10/60 75 or 200 column (GE Healthcare, München, Germany) for further purification and equilibration with ITC/NMR buffer (25 mM HEPES pH = 7.5, 100 mM NaCl). For structural NMR spectroscopy, buffer containing 50 mM Tris-HCl pH = 7.5, 100 mM NaCl was used. Prior to NMR experiments, TCEP and protease inhibitors cocktail were added to the samples to final concentrations 1 and 5 mM, respectively. Purified peptides and protein were concentrated and stored at −80 °C. The protein and peptide concentrations were calculated from the UV absorption at 280 nm by Nanodrop spectrophotometer (Thermo Scientific, Langenselbold, Germany).
(§3) All ITC experiments were performed at 25 °C using a VP-ITC microcalorimeter (Malvern Panalytical Ltd., Malvern, UK). Peptides in concentration of ~400 µM were titrated into 20–25 µM solutions of corresponding binding partner at a stirring speed of 307 rpm. The raw data were corrected on the dilution heat of peptides obtained in independent experiment (titration of the peptide in syringe into the ITC/NMR buffer in the measuring cell). Pre-titration delay was set to 180 s, interval between titration steps was experimentally adjusted to avoid kinetic contribution to the observed heat effects and set to 200 s. A single ITC profile was collected for each type of interaction. The ITC data were analyzed based on a “one-site” binding model with MicroCal ITC software implemented in Origin 7.0.
For orientation: Isothermal titration calorimetry measures the heat released or taken up as one component is titrated into another.

Assay [3] addresses T2, UFM1 (Homo sapiens, UniProt P61960).
T2 construct: Full length UFM1, residues 2–83; modified ubiquitin tag (Ub19) with TEV site (N, cleaved yes); made in house; host or cells: E. coli T7 Express
Nature of the assay: ITC, UBA5 peptides vs UFM1. Format: binding. Particulars: 25 °C; for ΔG / −T*ΔS: vs UFM1; for ΔS: vs UFM1, one-site model, single profile; for KA*10^−6: vs UFM1, value is KA × 10^−6, ± = fitting error.
Excerpt: as §1, §2, §3

Assay [4] concerns the target T3, GABARAPL2 (Homo sapiens, UniProt P60520).
T3 construct: modified ubiquitin tag (Ub19) with TEV site (N, cleaved yes); made in house; host or cells: E. coli T7 Express
The assay is described as follows: ITC, UBA5 peptides vs GABARAPL2. Format: binding. To be noted: for affinity increase to GABARAPL2 vs wild type peptide / ΔG / ΔS / −T*ΔS / KA*10^−6: 25 °C; for ΔG / ΔS / −T*ΔS: vs GABARAPL2; for KA*10^−6: vs GABARAPL2, value is KA × 10^−6, ± = fitting error; for affinity change, GABARAPL2: A371 mutants of R1-R2-R3^325–404.
Excerpt: as §1, §2, §3

Assay [5] has as its target T4, LC3B (Homo sapiens, UniProt Q9GZQ8).
T4 construct: LC3B, residues 5–120; ubiquitin tag Ub3 (vector pETm60_Ub3) (cleaved yes); made in house; host or cells: E. coli T7 Express
Nature of the assay: ITC, UBA5 peptides vs LC3B. To be noted: for affinity increase to LC3B vs wild type peptide / ΔG / ΔS / −T*ΔS / KA*10^−6: 25 °C; for ΔG / ΔS / −T*ΔS / KA*10^−6: vs LC3B; for KA*10^−6: value is KA × 10^−6, ± = fitting error; for affinity change, LC3B: A371 mutants of R1-R2-R3^325–404. In kind it is binding.
Excerpt: as §1, §2, §3

T2 sequence (P61960 2-83): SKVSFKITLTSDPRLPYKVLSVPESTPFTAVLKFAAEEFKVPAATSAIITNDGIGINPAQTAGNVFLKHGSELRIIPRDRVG
T3 sequence (P60520 3-116): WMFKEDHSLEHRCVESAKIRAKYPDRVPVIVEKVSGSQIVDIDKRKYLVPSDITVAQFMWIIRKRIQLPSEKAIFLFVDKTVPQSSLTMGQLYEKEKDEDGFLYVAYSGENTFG

GABARAPL2: GABARAPL2, residues 3–116: the “effect of GABARAPL2 on UFC1~UFM1 conjugation” value in assay [1] (high concentration of GABARAPL2 added to ufmylation assay) is “could efficiently prohibit the UFC1~UFM1 conjugation”.
Consider GAMEDSGESLEDLMAKMKNM [R3^388–404], for which the Kd (in general, the equilibrium constant for the complex coming apart) in assay [2] was determined as 10000 nM.
Still for that read-out and setting: the result for “GAMGPVPDLPEGITVAYTIPKKQEDSVTELTVEDSGESLEDLMAKMKNM [R2-R3^359–404]” reads 2700 nM.
Turning to H-GAMGPVPDLPEGITVAYTIPK-OH [R2^359–376], in assay [2] (ITC and NMR titration, listed as R2), the “interaction / affinity to UFC1 (in words)” value is on record as “no direct interactions; also recorded: does not interact with UFC1”. Besides, the “effect on UFC1~UFM1 conjugation (in words)” value (“effect … (in words)” below) in assay [1] is on record as “virtually no effect”.
With “R1-R2-R3^325–404 A371E: UBA5 C-terminal part with A371E mutant (res. 325–404)”, in assay [3], the ΔG was -6.86 kcal/mol, the “−T*ΔS” value came out at 4.56 kcal/mol, the ΔS was −15.3 cal mol^−1 K^−1 and the “KA*10^−6” value amounted to 0.11 ± 0.01 M^−1. Further, in assay [2], the N came out at 1.03 ± 0.005, the ΔG was -7.88 kcal/mol, the “−T*ΔS” value was -0.11 kcal/mol and the ΔS stood at 0.36 cal mol^−1 K^−1. Besides, in assay [2], the “KA*10^−6” value is recorded as 0.60 ± 0.02 M^−1, the Kd was determined as 1600 nM and the ΔH was -7.78 ± 0.05 kcal/mol. Further, in assay [4], the “affinity increase to GABARAPL2 vs wild type peptide” value is on record as ~ 3 fold, the ΔG is -9.95 kcal/mol, the ΔS turned out to be 7.23 cal mol^−1 K^−1 and the “−T*ΔS” value is -2.16 kcal/mol. In addition, in assay [4], the “KA*10^−6” value came to 19.60 ± 2.57 M^−1 and the “affinity change, GABARAPL2” value is recorded as “some increase in affinity”. Besides, in assay [5], the “affinity increase to LC3B vs wild type peptide” value was ~ 7 fold, the ΔG was -8.49 kcal/mol, the ΔS stood at 15.3 cal mol^−1 K^−1 and the “−T*ΔS” value is -4.56 kcal/mol. Also, in assay [5], the “KA*10^−6” value is recorded as 1.66 ± 0.12 M^−1 and the “affinity change, LC3B” value is on record as “some increase in affinity”. In assay [1], the “effect … (in words)” value is “nearly the same trans-thioesterification efficiency compared to wild type” and the “UFC1~UFM1 conjugate fraction (in words)” value is listed as “reduction of the UFC1~UFM1 conjugate fraction”. Besides, the “effect … (in words)” value in assay [1] (listed as A371E) is reported as “did not affect significantly the formation of the UFC1~UFM1 conjugate”.
“R1-R2-R3^325–404 A371T: UBA5 C-terminal part with A371T mutant (res. 325–404)”: in assay [3], the ΔG is -7.02 kcal/mol, the “−T*ΔS” value came out at 3.96 kcal/mol, the ΔS is −13.3 cal mol^−1 K^−1 and the “KA*10^−6” value amounted to 0.14 ± 0.01 M^−1. In assay [2], the N was 1.03 ± 0.008, the ΔG was -7.82 kcal/mol, the “−T*ΔS” value was 0.06 kcal/mol and the ΔS was −0.19 cal mol^−1 K^−1. In addition, in assay [2], the “KA*10^−6” value came to 0.54 ± 0.03 M^−1, the Kd is 1800 nM and the ΔH is -7.88 ± 0.08 kcal/mol. For the same substance, in assay [4], the “affinity increase to GABARAPL2 vs wild type peptide” value is listed as ~ 3 fold, the ΔG is -9.89 kcal/mol, the ΔS is 7.76 cal mol^−1 K^−1 and the “−T*ΔS” value is -2.31 kcal/mol. In assay [4], the “KA*10^−6” value was determined as 17.90 ± 3.75 M^−1 and the “affinity change, GABARAPL2” value is “some increase in affinity”. Also, in assay [5], the “affinity increase to LC3B vs wild type peptide” value is ~ 3 fold, the ΔG was -8.02 kcal/mol, the ΔS was found to be 14.3 cal mol^−1 K^−1 and the “−T*ΔS” value is -4.26 kcal/mol. For the same substance, in assay [5], the “KA*10^−6” value is given as 0.76 ± 0.04 M^−1 and the “affinity change, LC3B” value is given as “some increase in affinity”. For the same substance, in assay [1], the “effect … (in words)” value is given as “nearly the same trans-thioesterification efficiency compared to wild type” and the “UFC1~UFM1 conjugate fraction (in words)” value is “reduction of the UFC1~UFM1 conjugate fraction”. Further, the “effect … (in words)” value in assay [1] (listed as A371T) was “did not affect significantly the formation of the UFC1~UFM1 conjugate”.
